Measured values: US20190367619A1 (ARGENX, published 2019)
Numbering of substitutions follows the chain as printed.

T1: human galectin-10-His (human)
T1 construct: The last M of the tag may be Met1 of galectin-10; also called humanGal10-His; hGal10
T1 chain: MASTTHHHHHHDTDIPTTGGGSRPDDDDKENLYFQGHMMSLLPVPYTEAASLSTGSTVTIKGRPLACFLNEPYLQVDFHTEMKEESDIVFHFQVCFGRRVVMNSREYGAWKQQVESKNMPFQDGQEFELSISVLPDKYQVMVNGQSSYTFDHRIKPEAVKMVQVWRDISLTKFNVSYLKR

T2: cynomolgus galectin-10-His, WGS isoform (cynomolgus)
T2 construct: also called cynoGal10-WGS; not shown: His tag
T2 chain: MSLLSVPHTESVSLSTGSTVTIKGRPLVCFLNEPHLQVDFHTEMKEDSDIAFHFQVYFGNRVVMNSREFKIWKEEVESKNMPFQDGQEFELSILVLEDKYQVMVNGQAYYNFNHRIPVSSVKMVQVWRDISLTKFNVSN

T3: cynomolgus galectin-10-His, YRT isoform (cynomolgus)
T3 construct: also called cynoGal10-YRT; not shown: His tag
T3 chain: T2 chain with K23E, G24A, L31F, F69Y, K70R, I71T, S92R

B1: 7B07 scFv-human Fc (Fc fusion)
scFv: QVQLVESGGGLVQPGGSLRLSCAASGFTFRSYDMSWVRQAPGKGPEWVSAIKNGGGITYYADSVKGRFTISRDNAKNTLYLQMNSLKPEDTAVYYCATTHGIGTLGFGSWGQGTQVTVSSGGGGSGGGGSGGGGSSYELTQSASVSVALTQTAKITCDGNNIGSKSAQWYQQKPGQAPALVIYADEYRPEGIPERFSGSNSGNTATLIISGAQAEDEADYYCQVWDGSAAVFGRGTHLTVL
notes: also called 007B07; not shown: CH2-CH3 constant domains of human IgG1 (pUPEX50 scFv-Fc fusion vector)
B2: 8H11 scFv-human Fc (Fc fusion)
scFv: ELQLVESGGGLVQPGGSLRLSCAASGFTFSTNYMNWVRQAPGKGLEWVSGITSGGGRTYYADSVKGRFTISRDNAKNTLYLQMNSLKPEDTALYYCARTDHAWLDAWGQGTLVTVSSGGGGSGGGGSGGGGSQAGLTQPPSVSGTLGKTVTISCAGTSSDVGYGNYVSWYQQLPGTAPKLLIYAVSTRASGIPDRFSGSKSGNTASLTISGLLSEDEADYYCASYRSSNNYVFGGGTKLTVL
notes: also called 008H11; not shown: CH2-CH3 constant domains of human IgG1 (pUPEX50 scFv-Fc fusion vector)
B3: 11F12 scFv-human Fc (Fc fusion)
scFv: QVQLQESGGGLVQPGGSLRLSCAASGFTFSTNYMNWVRQAPGKGLEWVSGITSGGGRTYYADSVKGRFTISRDNAKNTLYLQMNSLKPEDTALYYCARTDHAWLDAWGQGTLVTVSSGGGGSGGGGSGGGGSHSAVTQPPSVSGTLGKTVTISCAGTSSDVGYGNYVSWYQHLPGTAPKLLIYAVSTRASGVPDRFSGSKSGNTASLTISGLQSEDEGDYYCASYSVRNNVVFGGGTRLTVL
notes: also called 011F12; not shown: CH2-CH3 constant domains of human IgG1 (pUPEX50 scFv-Fc fusion vector)

Assays:
[1] = biological target: T1, human galectin-10-His; assay: binding ELISA (summary table)
Protocol: (§1) In a similar setup to that used during the initial screening, the relative binding properties of the 11 new scFv-human Fc clones were analyzed by ELISA. Briefly, a Maxisorp plate was coated overnight with human or cynomolgus WGS or YRT isoforms of galectin-10-His at 0.2 μg/mL and blocked with PBS 1% casein, before being incubated with a serial dilution of the scFv-human Fc fusion molecules (from 100 nM, dilution 1/5, 8 points of dilutions). After several washing steps, detection of the bound scFv-human Fc was carried out with an anti-human Fc-HRP antibody (Jackson ImmunoResearch, Catalog 109-035-008). Absorbance was measured at 450 nm (reference at 620 nm) with Tecan instrument. Finally, the raw data (OD values) were plotted on GraphPad Prism 7.01. The EC50 values of each clone, calculated with a non-linear regression (log(agonist) vs. response Variable slope (four parameters)) are reported in Table 19 below. As a positive control, clone 6F05 from the previous galectin-10 antibody panel was included.

[2] = biological target: T2, cynomolgus galectin-10-His, WGS isoform; assay: binding ELISA (summary table)
Protocol: as §1

[3] = biological target: T1, human galectin-10-His; assay: ELISA, coated antigen 0.2 ug/mL
Protocol: as §1

[4] = biological target: T2, cynomolgus galectin-10-His, WGS isoform; assay: ELISA, coated antigen 0.2 ug/mL
Protocol: as §1

[5] = biological target: T3, cynomolgus galectin-10-His, YRT isoform; assay: ELISA, coated antigen 0.2 ug/mL
Protocol: as §1

[6] = biological target: T1, human galectin-10-His; assay: SPR Biacore (summary table)
Protocol: (§2) The binding properties of the scFv-human Fc panel to galectin-10 were analyzed on the Biacore T3000. For this purpose, a CM5 Chip was coated with polyclonal anti-human Fc at 8000 RU, then a fixed concentration of the scFv-human Fc panel (1.5 μg/mL) were captured to reach a binding signal around 150 RU. Finally, a serial dilution of human or cynomolgus WGS isoform of galectin-10-His (serial dilution, 1 over 2 from 5 μg/mL, 6 points of dilution) was injected. Raw data were analyzed via BIA evaluation software with a blank subtraction (4-3). Finally, the kd/KD and Rmax of each scFv-human Fc to galectin-10-His was determined using the Fit Kinetics simultaneous ka/kd/Binding with mass transfer/Local Rmax on BIA evaluation software.

[7] = biological target: T2, cynomolgus galectin-10-His, WGS isoform; assay: SPR Biacore (summary table)
Protocol: as §2

[8] = biological target: T1, human galectin-10-His; assay: SPR Biacore T3000, scFv-human Fc captured
Protocol: as §2

[9] = biological target: T2, cynomolgus galectin-10-His, WGS isoform; assay: SPR Biacore T3000, scFv-human Fc captured
Protocol: as §2

[10] = biological target: T3, cynomolgus galectin-10-His, YRT isoform; assay: binding ELISA (summary table)
Protocol: as §1

Row | Binder | EC50 [1] [nM] | EC50 [2] [nM] | Bmax [3] [OD] | EC50 [3] [nM] | Bmax [4] [OD] | EC50 [4] [nM] | Bmax [5] [OD] | Kd [6] [nM] | koff [6] [s⁻¹] | kon [6] [M⁻¹ s⁻¹] | Kd [7] [nM] | koff [7] [s⁻¹] | kon [7] [M⁻¹ s⁻¹] | Kd [8] [nM] | koff [8] [s⁻¹] | kon [8] [M⁻¹ s⁻¹] | Kd [9] [nM] | koff [9] [s⁻¹] | kon [9] [M⁻¹ s⁻¹] | EC50 [10] [nM] | further results
1 | B1 | 1.11 | 0.82 | 0.6 | 1.11 | 0.6 | 0.82 | 0 | 0.8 | 0.00124 | 1.5e+06 | 1.5 | 0.0766 | 5e+07 | 0.8 | 0.00124 | 1.5e+06 | 1.5 | 0.0766 | 5e+07 |  | binding result [5]: no binding (tested: serial dilution from 100 nM)
2 | B2 | 0.18 | 0.13 | 2.3 | 0.18 | 3.1 | 0.13 | 3.1 | 1.8 | 0.00082 | 453000 | 0.9 | 0.00161 | 1.75e+06 | 1.8 | 0.00082 | 453000 | 0.9 | 0.00161 | 1.75e+06 | 0.1 | EC50 [5]: 0.1 nM
3 | B3 | 0.56 |  | 1.8 | 0.56 |  |  | 3 | 2.3 | 0.00072 | 320000 |  |  |  | 2.3 | 0.00072 | 320000 |  |  |  | 0.24 | EC50 [5]: 0.24 nM
